Measurements taken from patent publication US20160272683A1 (Novo Nordisk, published 2016).
Numbered stars: 1 amine (or outer) side, 2 acyl side, 3 side chain; on linkers, the order of the positions; unused ones are H or OH. * marks the point of attachment. C20 diacid = O=C(O)CCCCCCCCCCCCCCCCCCC(=O)*; C18 diacid = O=C(O)CCCCCCCCCCCCCCCCC(=O)*; γGlu = O=C(O)[C@H](CCC(=O)[*:2])N[*:1]

T1: human amylin 3(a) receptor (human calcitonin receptor co-expressed with RAMP-3) on BHK570/CRE-luc cells (human, UniProt P30988 25-474; O60896 24-148)
T1 sequence (looked up) 1: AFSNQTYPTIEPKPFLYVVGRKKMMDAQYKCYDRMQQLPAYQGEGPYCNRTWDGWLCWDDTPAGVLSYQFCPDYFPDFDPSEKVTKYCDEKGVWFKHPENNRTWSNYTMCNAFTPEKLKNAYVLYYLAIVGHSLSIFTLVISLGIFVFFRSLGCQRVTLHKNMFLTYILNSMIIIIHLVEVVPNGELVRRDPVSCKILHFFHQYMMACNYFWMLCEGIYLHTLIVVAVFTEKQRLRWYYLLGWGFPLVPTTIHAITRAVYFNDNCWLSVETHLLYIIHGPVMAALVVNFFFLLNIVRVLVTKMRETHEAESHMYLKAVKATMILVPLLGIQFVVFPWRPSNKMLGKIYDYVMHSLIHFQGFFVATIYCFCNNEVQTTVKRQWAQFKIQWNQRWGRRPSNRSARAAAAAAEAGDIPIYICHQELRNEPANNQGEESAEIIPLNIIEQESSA
T1 sequence (looked up) 2: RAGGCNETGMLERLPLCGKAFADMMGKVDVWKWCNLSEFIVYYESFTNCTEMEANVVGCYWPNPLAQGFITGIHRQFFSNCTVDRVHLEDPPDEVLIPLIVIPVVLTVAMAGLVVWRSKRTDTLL

T2: human calcitonin receptor on BHK570/CRE-luc cells (human, UniProt P30988 25-474)
T2 sequence (looked up): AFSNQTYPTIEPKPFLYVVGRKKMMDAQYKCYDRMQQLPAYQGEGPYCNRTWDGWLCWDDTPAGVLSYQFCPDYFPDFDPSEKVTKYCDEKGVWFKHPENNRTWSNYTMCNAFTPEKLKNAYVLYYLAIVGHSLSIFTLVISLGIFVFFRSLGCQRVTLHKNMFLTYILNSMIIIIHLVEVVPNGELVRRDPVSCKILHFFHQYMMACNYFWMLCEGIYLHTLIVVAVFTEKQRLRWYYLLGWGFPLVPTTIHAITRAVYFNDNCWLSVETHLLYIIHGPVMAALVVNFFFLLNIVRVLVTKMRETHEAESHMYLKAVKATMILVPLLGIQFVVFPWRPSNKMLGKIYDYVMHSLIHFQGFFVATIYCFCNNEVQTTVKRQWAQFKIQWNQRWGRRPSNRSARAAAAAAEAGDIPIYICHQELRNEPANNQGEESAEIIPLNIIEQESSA


How the values were obtained:
[1] = target: T1, human amylin 3(a) receptor (human …); test: cell-based or functional assay
[2] = target: T2, human calcitonin receptor on …; test: cell-based or functional assay

| Binder | hAmylin-R funct. EC50 (pM), tested with HSA [1] [pM] | hCTR funct. EC50 (pM), tested with HSA [2] [pM] |
| --- | --- | --- |
| {C20 diacid-γGlu}-ASGLSTAALGRLSAELHELATYPRTETGSGSP-NH2 [[N-terminal(C20 diacid-gGlu), des1, 4G, 23Y, 30S, 31G]mimylin] | 71 | 45 |
| {C18 diacid-γGlu}-ASELSTAVLGRLSAELHELATLPRTETGSGSP-NH2 (SMILES CC(C)C[C@H](NC(=O)[C@H](CCC(=O)O)NC(=O)[C@H](Cc1c[nH]cn1)NC(=O)[C@H](CC(C)C)NC(=O)[C@H](CCC(=O)O)NC(=O)[C@H](C)NC(=O)[C@H](CO)NC(=O)[C@H](CC(C)C)NC(=O)[C@H](CCCNC(=N)N)NC(=O)CNC(=O)[C@H](CC(C)C)NC(=O)[C@@H](NC(=O)[C@H](C)NC(=O)[C@@H](NC(=O)[C@H](CO)NC(=O)[C@H](CC(C)C)NC(=O)[C@H](CCC(=O)O)NC(=O)[C@H](CO)NC(=O)[C@H](C)NC(=O)CC[C@H](NC(=O)CCCCCCCCCCCCCCCCC(=O)O)C(=O)O)[C@@H](C)O)C(C)C)C(=O)N[C@@H](C)C(=O)N[C@H](C(=O)N[C@@H](CC(C)C)C(=O)N1CCC[C@H]1C(=O)N[C@@H](CCCNC(=N)N)C(=O)N[C@H](C(=O)N[C@@H](CCC(=O)O)C(=O)N[C@H](C(=O)NCC(=O)N[C@@H](CO)C(=O)NCC(=O)N[C@@H](CO)C(=O)N1CCC[C@H]1C(N)=O)[C@@H](C)O)[C@@H](C)O)[C@@H](C)O) [[N-terminal(C18 diacid-gGlu), des1, 9V, 30S, 31G]mimylin] | 17 | 11 |
| {C20 diacid-γGlu}-ASELSTAALGRLSAELHELSTYPRTETGSGSP-NH2 (SMILES CC(C)C[C@H](NC(=O)[C@H](C)NC(=O)[C@H](C)NC(=O)[C@@H](NC(=O)[C@H](CO)NC(=O)[C@H](CC(C)C)NC(=O)[C@H](CCC(=O)O)NC(=O)[C@H](CO)NC(=O)[C@H](C)NC(=O)CC[C@H](NC(=O)CCCCCCCCCCCCCCCCCCC(=O)O)C(=O)O)[C@@H](C)O)C(=O)NCC(=O)N[C@@H](CCCNC(=N)N)C(=O)N[C@@H](CC(C)C)C(=O)N[C@@H](CO)C(=O)N[C@@H](C)C(=O)N[C@@H](CCC(=O)O)C(=O)N[C@@H](CC(C)C)C(=O)N[C@@H](Cc1c[nH]cn1)C(=O)N[C@@H](CCC(=O)O)C(=O)N[C@@H](CC(C)C)C(=O)N[C@@H](CO)C(=O)N[C@H](C(=O)N[C@@H](Cc1ccc(O)cc1)C(=O)N1CCC[C@H]1C(=O)N[C@@H](CCCNC(=N)N)C(=O)N[C@H](C(=O)N[C@@H](CCC(=O)O)C(=O)N[C@H](C(=O)NCC(=O)N[C@@H](CO)C(=O)NCC(=O)N[C@@H](CO)C(=O)N1CCC[C@H]1C(N)=O)[C@@H](C)O)[C@@H](C)O)[C@@H](C)O) [[N-terminal(C20 diacid-gGlu), des1, 21S, 23Y, 30S, 31G]mimylin] | 58 | 30 |
| {C20 diacid-γGlu}-ASELSTAALGHLSAELHELATLPRTETGSGSP-NH2 [[N-terminal(C20 diacid-gGlu), des1, 12H, 30S, 31G]mimylin] | 230 | 48 |
| {C18 diacid-γGlu}-ASELSTAALGRLSAELHELATLPRTETGSGPP-NH2 (SMILES CC(C)C[C@H](NC(=O)[C@H](C)NC(=O)[C@H](C)NC(=O)[C@@H](NC(=O)[C@H](CO)NC(=O)[C@H](CC(C)C)NC(=O)[C@H](CCC(=O)O)NC(=O)[C@H](CO)NC(=O)[C@H](C)NC(=O)CC[C@H](NC(=O)CCCCCCCCCCCCCCCCC(=O)O)C(=O)O)[C@@H](C)O)C(=O)NCC(=O)N[C@@H](CCCNC(=N)N)C(=O)N[C@@H](CC(C)C)C(=O)N[C@@H](CO)C(=O)N[C@@H](C)C(=O)N[C@@H](CCC(=O)O)C(=O)N[C@@H](CC(C)C)C(=O)N[C@@H](Cc1c[nH]cn1)C(=O)N[C@@H](CCC(=O)O)C(=O)N[C@@H](CC(C)C)C(=O)N[C@@H](C)C(=O)N[C@H](C(=O)N[C@@H](CC(C)C)C(=O)N1CCC[C@H]1C(=O)N[C@@H](CCCNC(=N)N)C(=O)N[C@H](C(=O)N[C@@H](CCC(=O)O)C(=O)N[C@H](C(=O)NCC(=O)N[C@@H](CO)C(=O)NCC(=O)N1CCC[C@H]1C(=O)N1CCC[C@H]1C(N)=O)[C@@H](C)O)[C@@H](C)O)[C@@H](C)O) [[N-terminal(C18 diacid-gGlu), des1, 30S, 31G, 32P]mimylin] | 413 | 95 |

Now from value to binder:

| hAmylin-R funct. EC50 (pM), tested with HSA [1] [pM] | hCTR funct. EC50 (pM), tested with HSA [2] [pM] | Binder |
| --- | --- | --- |
| 134 | 56 | {C20 diacid-γGlu}-ASELSTAALGRLSAELHELATLPRTETGTGTP-NH2 (SMILES CC(C)C[C@H](NC(=O)[C@H](C)NC(=O)[C@H](C)NC(=O)[C@@H](NC(=O)[C@H](CO)NC(=O)[C@H](CC(C)C)NC(=O)[C@H](CCC(=O)O)NC(=O)[C@H](CO)NC(=O)[C@H](C)NC(=O)CC[C@H](NC(=O)CCCCCCCCCCCCCCCCCCC(=O)O)C(=O)O)[C@@H](C)O)C(=O)NCC(=O)N[C@@H](CCCNC(=N)N)C(=O)N[C@@H](CC(C)C)C(=O)N[C@@H](CO)C(=O)N[C@@H](C)C(=O)N[C@@H](CCC(=O)O)C(=O)N[C@@H](CC(C)C)C(=O)N[C@@H](Cc1c[nH]cn1)C(=O)N[C@@H](CCC(=O)O)C(=O)N[C@@H](CC(C)C)C(=O)N[C@@H](C)C(=O)N[C@H](C(=O)N[C@@H](CC(C)C)C(=O)N1CCC[C@H]1C(=O)N[C@@H](CCCNC(=N)N)C(=O)N[C@H](C(=O)N[C@@H](CCC(=O)O)C(=O)N[C@H](C(=O)NCC(=O)N[C@H](C(=O)NCC(=O)N[C@H](C(=O)N1CCC[C@H]1C(N)=O)[C@@H](C)O)[C@@H](C)O)[C@@H](C)O)[C@@H](C)O)[C@@H](C)O) [[N-terminal(C20 diacid-gGlu), des1, 30T, 31G, 32T]mimylin] |
| 185 | 22 | {C20 diacid-γGlu}-ASELSTAALGRLSAELHELATLPHTETGSGSP-NH2 (SMILES CC(C)C[C@H](NC(=O)[C@H](C)NC(=O)[C@H](C)NC(=O)[C@@H](NC(=O)[C@H](CO)NC(=O)[C@H](CC(C)C)NC(=O)[C@H](CCC(=O)O)NC(=O)[C@H](CO)NC(=O)[C@H](C)NC(=O)CC[C@H](NC(=O)CCCCCCCCCCCCCCCCCCC(=O)O)C(=O)O)[C@@H](C)O)C(=O)NCC(=O)N[C@@H](CCCNC(=N)N)C(=O)N[C@@H](CC(C)C)C(=O)N[C@@H](CO)C(=O)N[C@@H](C)C(=O)N[C@@H](CCC(=O)O)C(=O)N[C@@H](CC(C)C)C(=O)N[C@@H](Cc1c[nH]cn1)C(=O)N[C@@H](CCC(=O)O)C(=O)N[C@@H](CC(C)C)C(=O)N[C@@H](C)C(=O)N[C@H](C(=O)N[C@@H](CC(C)C)C(=O)N1CCC[C@H]1C(=O)N[C@@H](Cc1c[nH]cn1)C(=O)N[C@H](C(=O)N[C@@H](CCC(=O)O)C(=O)N[C@H](C(=O)NCC(=O)N[C@@H](CO)C(=O)NCC(=O)N[C@@H](CO)C(=O)N1CCC[C@H]1C(N)=O)[C@@H](C)O)[C@@H](C)O)[C@@H](C)O) [[N-terminal(C20 diacid-gGlu), des1, 25H, 30S, 31G]mimylin] |
| 93 | 71 | {C20 diacid-γGlu}-ASELSTAALGRLSAELHELATYPRTETGSGSY-NH2 (SMILES CC(C)C[C@H](NC(=O)[C@H](C)NC(=O)[C@H](C)NC(=O)[C@@H](NC(=O)[C@H](CO)NC(=O)[C@H](CC(C)C)NC(=O)[C@H](CCC(=O)O)NC(=O)[C@H](CO)NC(=O)[C@H](C)NC(=O)CC[C@H](NC(=O)CCCCCCCCCCCCCCCCCCC(=O)O)C(=O)O)[C@@H](C)O)C(=O)NCC(=O)N[C@@H](CCCNC(=N)N)C(=O)N[C@@H](CC(C)C)C(=O)N[C@@H](CO)C(=O)N[C@@H](C)C(=O)N[C@@H](CCC(=O)O)C(=O)N[C@@H](CC(C)C)C(=O)N[C@@H](Cc1c[nH]cn1)C(=O)N[C@@H](CCC(=O)O)C(=O)N[C@@H](CC(C)C)C(=O)N[C@@H](C)C(=O)N[C@H](C(=O)N[C@@H](Cc1ccc(O)cc1)C(=O)N1CCC[C@H]1C(=O)N[C@@H](CCCNC(=N)N)C(=O)N[C@H](C(=O)N[C@@H](CCC(=O)O)C(=O)N[C@H](C(=O)NCC(=O)N[C@@H](CO)C(=O)NCC(=O)N[C@@H](CO)C(=O)N[C@@H](Cc1ccc(O)cc1)C(N)=O)[C@@H](C)O)[C@@H](C)O)[C@@H](C)O) [[N-terminal(C20 diacid-gGlu), des1, 23Y, 30S, 31G, 33Y]mimylin] |
| 100 | 37 | {C20 diacid-γGlu}-ASELSTAALGRLSAELHELATYPRTETGSGAP-NH2 (SMILES CC(C)C[C@H](NC(=O)[C@H](C)NC(=O)[C@H](C)NC(=O)[C@@H](NC(=O)[C@H](CO)NC(=O)[C@H](CC(C)C)NC(=O)[C@H](CCC(=O)O)NC(=O)[C@H](CO)NC(=O)[C@H](C)NC(=O)CC[C@H](NC(=O)CCCCCCCCCCCCCCCCCCC(=O)O)C(=O)O)[C@@H](C)O)C(=O)NCC(=O)N[C@@H](CCCNC(=N)N)C(=O)N[C@@H](CC(C)C)C(=O)N[C@@H](CO)C(=O)N[C@@H](C)C(=O)N[C@@H](CCC(=O)O)C(=O)N[C@@H](CC(C)C)C(=O)N[C@@H](Cc1c[nH]cn1)C(=O)N[C@@H](CCC(=O)O)C(=O)N[C@@H](CC(C)C)C(=O)N[C@@H](C)C(=O)N[C@H](C(=O)N[C@@H](Cc1ccc(O)cc1)C(=O)N1CCC[C@H]1C(=O)N[C@@H](CCCNC(=N)N)C(=O)N[C@H](C(=O)N[C@@H](CCC(=O)O)C(=O)N[C@H](C(=O)NCC(=O)N[C@@H](CO)C(=O)NCC(=O)N[C@@H](C)C(=O)N1CCC[C@H]1C(N)=O)[C@@H](C)O)[C@@H](C)O)[C@@H](C)O) [[N-terminal(C20 diacid-gGlu), des1, 23Y, 30S, 31G, 32A]mimylin] |
